Target: T1, Eco1 phosphopeptide “94-98-99” (phosphates at Thr94, Ser98 and Ser99), FITC-conjugated (budding yeast)
T1 chain: GTITPLNSSPLKK
Experiment: fluorescence polarisation

B1: Cdc4–Skp1 complex (His6-Cdc4-LP6DelA GST-Skp1), P07834 1-779; P52286 1-194 (complex)
chain 1: GTLIKDNLKRDLITSLPFEISLKIFNYLQFEDIINSLGVSQNWNKIIRKSTSLWKKLLISENFVSPKGFNSLNLKLSQKYPKLSQQDRLRLSFLENIFILKNWYNPKFVPQRTTLRGHMTSVITCLQFEDNYVITGADDKMIRVYDSINKKFLLQLSGHDGGVWALKYAHGGILVSGSTDRTVRVWDIKKGCCTHVFEGHNSTVRCLDIVEYKNIKYIVTGSRDNTLHVWKLPKESSVPDHGEEHDYPLVFHTPEENPYFVGVLRGHMASVRTVSGHGNIVVSGSYDNTLIVWDVAQMKCLYILSGHTDRIYSTIYDHERKRCISASMDTTIRIWDLENGELMYTLQGHTALVGLLRLSDKFLVSAAADGSIRGWDANDYSRKFSYHHTNLSAITTFYVSDNILVSGSENQFNIYNLRSGKLVHANILKDADQIWSVNFKGKTLVAAVEKDGQSFLEILDFS
chain 2: MVTSNVVLVSGEGERFTVDKKIAERSLLLKNYLNDMGDDDDEDDDEIVMPVPNVRSSVLQKVIEWAEHHRDSNFPDEDDDDSRKSAPVDSWDREFLKVDQEMLYEIILAANYLNIKPLLDAGCKVVAEMIRGRSPEEIRRTFNIVNDFTPEEEAAIRRENEWAEDR
modifications: not checked
Kd: 10.3 µM

Source: publication PMC3565030
